T1: SgrAI restriction endonuclease (UniProt Q9F6L0 1-339)
T1 sequence: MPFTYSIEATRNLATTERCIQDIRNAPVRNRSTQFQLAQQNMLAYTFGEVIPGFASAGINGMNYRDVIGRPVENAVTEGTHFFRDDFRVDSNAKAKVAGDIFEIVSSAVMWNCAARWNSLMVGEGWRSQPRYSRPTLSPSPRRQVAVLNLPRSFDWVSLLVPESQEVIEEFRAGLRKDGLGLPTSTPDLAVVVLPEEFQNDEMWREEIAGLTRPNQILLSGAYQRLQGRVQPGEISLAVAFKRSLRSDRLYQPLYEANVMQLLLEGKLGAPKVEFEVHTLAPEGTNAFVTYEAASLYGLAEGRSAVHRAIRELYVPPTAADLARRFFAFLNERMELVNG


Columns and labels:
[1] = target: T1, SgrAI restriction endonuclease; assay: cryo-EM structure (2.7 A); Ca2+ (sites A and B), filamentous, intact scissile phosphate; EM sample buffer not given in the material; Ca2+ in place of Mg2+; SgrAI stored after SEC in 25 mM Tris-HCl pH 8, 150 mM NaCl, 1 mM DTT; settings: protein: recombinant; chain copies: 2; blunt
[2] = target: the molecule itself; assay: crystal structure; DNA-free (apo) SgrAI with Ca2+; hanging drop, 5% PEG 4000, 0.1 M imidazole pH 6.5, 0.1 M NaCl, 5 mM Ca(OAc)2, 17 °C; two chains per asymmetric unit forming the dimer
[3] = target: the molecule itself; assay: cryo-EM structure; run-on oligomeric filaments of SgrAI dimers bound to 40 bp primary site DNA (CACCGGTG, intact scissile phosphate); 4.9 uM SgrAI, 41 uM dsDNA, 10 mM Ca2+, room temperature 1 h; helical symmetry rise 21.2 A, twist -85.8 deg

| Binder | binding result [1] | stoichiometry N [2] | stoichiometry N [3] |
| --- | --- | --- | --- |
| 40-1 (40 bp primary site DNA) (dsDNA) DNA 1: GATGCGTGGGTCTTCACACCGGTGGATGCGTGGGTCTTCA DNA 2: TGAAGACCCACGCATCCACCGGTGTGAAGACCCACGCATC | binds | – | – |
| SgrAI type II restriction endonuclease, wildtype (enzyme, homodimer of 74 kDa; in the crystal it is DNA-free with Ca2+; also called SgrAI dimer; source: E. coli BL21 (DE3), purified (Talon resin, heparin FF, Superdex-200 SEC)) MPFTYSIEATRNLATTERCIQDIRNAPVRNRSTQFQLAQQNMLAYTFGEVIPGFASAGINGMNYRDVIGRPVENAVTEGTHFFRDDFRVDSNAKAKVAGDIFEIVSSAVMWNCAARWNSLMVGEGWRSQPRYSRPTLSPSPRRQVAVLNLPRSFDWVSLLVPESQEVIEEFRAGLRKDGLGLPTSTPDLAVVVLPEEFQNDEMWREEIAGLTRPNQILLSGAYQRLQGRVQPGEISLAVAFKRSLRSDRLYQPLYEANVMQLLLEGKLGAPKVEFEVHTLAPEGTNAFVTYEAASLYGLAEGRSAVHRAIRELYVPPTAADLARRFFAFLNERMELVNG | – | 2 chains per dimer | < 10 DBDs (DNA-bound SgrAI dimers) per filament |
